How the values were obtained:
[1] = target: KslB, bacterial Pictet–Spenglerase from Kitasatospora setae (Kitasatospora setae); experiment: crystal structure
[2] = target: KslB, bacterial Pictet–Spenglerase from Kitasatospora setae (Kitasatospora setae); experiment: SEC

Substance: KslB, bacterial Pictet–Spenglerase from Kitasatospora setae (enzyme)
- stoichiometry N [1]: 2
- stoichiometry N [2]: 2

From PMC12012969
